This assay deals with Toll-like receptor 4 (TLR4) on mouse bone marrow-derived dendritic cells (mouse (endogenous in bone marrow-derived DCs)) (UniProt Q9QUK6). The assay can be described thus: flow cytometry on cells; immature bone marrow-derived DCs of WT C57 BL/6 mice, pre-incubated with IgG1 isotype, TLR2 blocking or TLR4 blocking antibody on ice for 1 h, then stained with anti-CD11c APC, anti-TLR2-FITC, anti-TLR4-PE-Cy7 and rTs-Hsp70-PE on ice for 30 min; rTs-Hsp70-PE and TLR2-FITC or TLR4-PE-Cy7 double positive cells among CD11c+ cells. A general note: A flow cytometer gives signals particle by particle.
Sequence of UniProt Q9QUK6 (Q9QUK6 26-835): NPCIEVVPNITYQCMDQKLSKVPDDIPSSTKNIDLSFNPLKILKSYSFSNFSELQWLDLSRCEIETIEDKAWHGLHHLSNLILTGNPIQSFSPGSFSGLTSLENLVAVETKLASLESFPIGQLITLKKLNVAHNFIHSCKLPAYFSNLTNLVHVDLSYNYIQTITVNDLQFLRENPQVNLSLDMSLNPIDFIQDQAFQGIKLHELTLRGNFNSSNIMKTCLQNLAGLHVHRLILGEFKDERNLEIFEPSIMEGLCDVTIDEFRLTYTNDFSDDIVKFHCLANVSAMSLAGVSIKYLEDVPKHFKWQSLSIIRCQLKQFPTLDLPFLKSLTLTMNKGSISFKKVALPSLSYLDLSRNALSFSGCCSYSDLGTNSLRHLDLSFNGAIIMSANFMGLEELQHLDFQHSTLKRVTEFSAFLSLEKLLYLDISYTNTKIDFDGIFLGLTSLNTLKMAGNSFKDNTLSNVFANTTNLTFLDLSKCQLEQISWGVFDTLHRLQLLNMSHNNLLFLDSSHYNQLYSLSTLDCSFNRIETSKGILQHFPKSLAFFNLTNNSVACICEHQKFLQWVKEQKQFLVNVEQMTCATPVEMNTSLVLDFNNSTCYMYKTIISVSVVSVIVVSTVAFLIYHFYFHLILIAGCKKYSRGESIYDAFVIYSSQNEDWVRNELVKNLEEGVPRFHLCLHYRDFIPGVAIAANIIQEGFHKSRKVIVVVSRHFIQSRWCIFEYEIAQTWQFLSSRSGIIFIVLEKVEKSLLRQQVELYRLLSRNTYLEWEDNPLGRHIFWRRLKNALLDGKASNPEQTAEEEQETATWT

As for “Recombinant Trichinella spiralis Heat shock protein 70 (natural protein)”, the percent of TLR4+ cells on CD11c+ DCs bound by rTs-Hsp70 turned out to be 12.3%.

(Values after paper PMC5979045.)
